In the emibetuzumab library of Makowski et al. (2022):

B1: VH:VL chains; a variant is named by its letters at X, in order (parent)
chain 1: QVQLVQSGAEVKKPGASVKVSCKASGYTFTDYXMHWVRQAPGQGLEWMGXVNPNXXXTTYNQKFEGRVTMTTDTSTSTAYMELRSLRSDDTAVYYCARXNXLDXWGQGTTVTVSS
chain 2: DIQMTQSPSSLSASVGDRVTITCSVSSSVSSIYLHWYQQKPGKAPKLLIYSTSNLASGVPSRFSGSGSGTDFTLTISSLQPEDFATYYCQVYSGYPLTFGGGTKVEIK

Variants of: B1
Test: yeast display scFab, FACS + sequencing
Outline: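 For the non-specific binding call, a heavy-chain CDR mutant scFab library on the yeast surface was FACS-sorted and samples from two replicates were deep sequenced. Cells were labelled with anti-Myc and either biotinylated ovalbumin (260 μg/mL in PBSB, 3 h, room temperature) or soluble membrane proteins (130 μg/mL, 20 min on ice), with gates on the top 25% and bottom 10% of binders. With membrane protein and ovalbumin samples pooled, a sequence in ≥3 of 4 positive samples and no negatives was scored positive, and the converse rule scored negatives.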

| Variant | non-specific binding call |
| --- | --- |
| FKGRGAGS | binds |
| YKGGSAWY | binds |
| YKGKDSSV | no binding |
| YKGRDAGD | binds |
| FKGEGDGV | no binding |
| FKGKGSAD | binds |
| SKERGDWY | no binding |
| SKERGDWV | no binding |
| YKGEGDGV | no binding |
| FKGEGDSA | no binding |
| YKGKGDGD | binds |
| YKGKGSAV | binds |
| YKGKGSAA | binds |
| VKGRAAVA | no binding |
| VKGRGAAY | binds |
| VKGEGDVY | no binding |
| FKGGGAVY | binds |
| VKEKGDWV | no binding |
| FKGGSSAA | binds |
| FKGEGSSA | no binding |
| VKGAGAAS | binds |
| YKGRASAV | binds |
| DKGGSSLD | no binding |
| VKGEAAWD | binds |

| Variant | non-specific binding call |
| --- | --- |
| VKEKGSLF | binds |
| VKGASDVA | no binding |
| VKGASDVV | no binding |
| YKGAGDVV | no binding |
| YKGKSAWV | binds |
| YKGKSAWD | binds |
| AKERGDGV | no binding |
| YKGGGYGA | binds |
| YKGKGDAD | binds |
| VKGRAFSV | no binding |
| SKGRGAGS | binds |
| VKEKGDVA | no binding |
| FKGRGALA | binds |
| VKGRASSV | no binding |
| FKGKGSGA | binds |
| YKGAGSAD | binds |
| VKGEGYGA | binds |
| SKERGDAA | no binding |
| FKGEGDAA | no binding |
| FKGKGAGD | binds |
| SKGENALY | no binding |
| SKGASFAY | binds |
| VKGKGDAV | no binding |
| YKGEADGA | no binding |

| Variant | non-specific binding call |
| --- | --- |
| YKGGGAGA | binds |
| YKGGGAGS | binds |
| SKGKGAVA | binds |
| SKERGSLV | no binding |
| SKGRGALA | binds |
| VKGRADGS | no binding |
| VKGRADGV | no binding |
| SKGEGDWA | no binding |
| SKERGDVV | no binding |
| SKERGDVD | no binding |
| SKERGDVA | no binding |
| YKGEGDLA | no binding |
| YKGEGDLV | no binding |
| VKGRADWF | no binding |
| VKGRADWD | no binding |
| VKGRADWA | no binding |
| VKGRADWV | no binding |
| VKGRADWY | no binding |
| YKGAAFWA | binds |
| SKGKGSWD | binds |
| FKGEGAAD | no binding |
| YKGKGAGS | binds |
| YKGKGAGF | binds |
| AKGEDSVF | no binding |

| Variant | non-specific binding call |
| --- | --- |
| YKGRAALY | binds |
| DKGGGFAV | no binding |
| VKGAGSVV | no binding |
| YKGRGAGY | binds |
| YKGRGAGF | binds |
| VKGRADAV | no binding |
| VKGRADAA | no binding |
| VKGRADAD | no binding |
| YKGRGAAF | binds |
| YKGRGAAY | binds |
| YKGRGAAS | binds |
| YKERDVGV | binds |
| YKGAAFAD | binds |
| VKGKGDWV | no binding |
| FKGKGVGD | binds |
| DKGGSDVA | no binding |
| DKGGSDVV | no binding |
| DKERGDLV | no binding |
| VKEKGDLA | no binding |
| VKGGGFGA | binds |
| VKEKGYLV | no binding |
| YKGKGSVA | binds |
| YKGKGSVV | binds |
| YKGKGSVS | binds |

| Variant | non-specific binding call |
| --- | --- |
| VKGGGYGA | binds |
| AKGGGDVV | no binding |
| VKGKGASA | binds |
| YKGRDASD | binds |
| YKGAGALD | binds |
| YKGADFGD | binds |
| FKGGNVGV | binds |
| FKGKGSWD | binds |
| SKGRADVY | no binding |
| VKGGAAVY | no binding |
| YKGGSSGV | binds |
| YKGKGAVA | binds |
| YKGKGSLA | binds |
| YKGKGSLD | binds |
| YKGKGSLF | binds |
| YKGKGSLY | binds |
| YKGKGSGA | binds |
| YKGKGSGS | binds |
| YKGKGSGF | binds |
| YKGEGYGV | binds |
| VKGKGAAF | binds |
| FKGKGALD | binds |
| YKGEDDVY | no binding |
| FKGKGAVV | binds |

| Variant | non-specific binding call |
| --- | --- |
| FKGKGAVA | binds |
| SKGGSAWD | binds |
| VKGKGSAA | binds |
| VKGRASWS | no binding |
| FKGKSSSD | binds |
| YKGKGVGV | binds |
| YKGKGSWA | binds |
| YKGKGSWD | binds |
| VKGGNVGV | binds |
| VKERGDAV | no binding |
| YKERGDVF | binds |
| YKERGDVV | no binding |
| YKGEGDVV | no binding |
| VKERGSVD | binds |
| VKGRADLV | no binding |
| VKGRADLY | no binding |
| FKGKGAAV | binds |
| FKGKGAAF | binds |
| FKGEGFGS | binds |
| VKGKGDLA | no binding |
| YKGKGSSS | binds |
| YKGKGSSY | binds |
| SKGKGVGA | binds |
| DKGEGDLA | no binding |

| Variant | non-specific binding call |
| --- | --- |
| DKGEGAGV | no binding |
| YKGGDDLA | no binding |
| YKGKGAWY | binds |
| YKGKGAWA | binds |
| YKGKGAWS | binds |
| YKGKGAWV | binds |
| YKGKGAWD | binds |
| DKGGGDVA | no binding |
| YKGRGALF | binds |
| YKGRGALA | binds |
| YKGKGFAA | binds |
| VKGKGDVY | no binding |
| FKGKGAWY | binds |
| YKGRDDVA | no binding |
| DKGGSAVV | no binding |
| YKGRDALD | binds |
| AKGRADVY | no binding |
| FKGEGDVA | no binding |
| FKGEGDVY | no binding |
| YKGRDAWD | binds |
| FKGEGYGV | binds |
| DKGGAAGD | no binding |
| YKGGSAGA | binds |
| YKGGSAGY | binds |

| Variant | non-specific binding call |
| --- | --- |
| SKGKGAGD | binds |
| SKGKGAGF | binds |
| FKGEDAVA | no binding |
| YKGKGFGA | binds |
| YKGKGFGF | binds |
| YKGKGFGD | binds |
| VKGESAGV | no binding |
| VKGRASGF | no binding |
| VKGRASGY | no binding |
| VKGRGAGS | binds |
| VKGRGAGY | binds |
| AKGRAAAS chain 1 D103N | binds |
| VKGKGAWD | binds |
| VKGRASAS | no binding |
| VKGRASAF | no binding |
| VKGKDVGY | binds |
| SKGKGAWY | binds |
| SKGKGSAA | binds |
| FKGGGFGA | binds |
| FKGKGFGA | binds |
| YKGKDSVD | no binding |
| VKGGSFGS | binds |
| AKGGAAVY | no binding |
| YKETGYAV | binds |

| Variant | non-specific binding call |
| --- | --- |
| YKGGGALD | binds |
| VKGAGDLA | no binding |
| VKGRADSA | no binding |
| VKGRADSV | no binding |
| VKGRADSF | no binding |
| VKETSVLF | binds |
| YKGKGYVD | binds |
| YKGGSSAA | binds |
| YKGGSSAD | binds |
| VKGKSSWS | binds |
| YKGGGSAV | binds |
| YKGKGALD | binds |
| YKGKGALA | binds |
| VKERGAVA | no binding |
| DKGGAVWT | no binding |
| DKGEGDGA | no binding |
| FKGEGAGV | no binding |
| YKGGSFGV | binds |
| VKEKGDSA | no binding |
| SKERGDLV | no binding |
| DKGEGAAA | no binding |
| SKGASAWA | binds |
| YKERASGV | binds |
| YKGAGAWA | binds |

| Variant | non-specific binding call |
| --- | --- |
| YKGGSAAA | binds |
| VKGRAYGV | no binding |
| VKGASDGA | no binding |
| YKGEGFSS | binds |
| FKGEGSLY | no binding |
| FKGEGSLV | no binding |
| AKGKGAAV | binds |
| VKGASDWA | no binding |
| YKGGSSLD | binds |
| VKGKDSGD | binds |
| FKGRGAAV | binds |
| FKGRGAAY | binds |
| FKGRGAAS | binds |
| FKGRGAAD | binds |
| YKGRAAGS | binds |
| FKGRDSGS | binds |
| VKERGDGV | no binding |
| YKGGSDVY | binds |
| YKGAASGV | binds |
| AKGKASSD | binds |
| SKGKGSSA | binds |
| SKERGDGA | no binding |
| VKGRADVF | no binding |
| VKGRADVD | no binding |
